Experimental data: IntAct's records for PubMed 21685908

B1: Rab5 GDP/GTP exchange factor (Homo sapiens), Q9UJ41 (parent)
chain: MSLKSERRGIHVDQSDLLCKKGCGYYGNPAWQGFCSKCWREEYHKARQKQIQEDWELAERLQREEEEAFASSQSSQGAQSLTFSKFEEKKTNEKTRKVTTVKKFFSASSRVGSKKEIQEAKAPSPSINRQTSIETDRVSKEFIEFLKTFHKTGQEIYKQTKLFLEGMHYKRDLSIEEQSECAQDFYHNVAERMQTRGKVPPERVEKIMDQIEKYIMTRLYKYVFCPETTDDEKKDLAIQKRIRALRWVTPQMLCVPVNEDIPEVSDMVVKAITDIIEMDSKRVPRDKLACITKCSKHIFNAIKITKNEPASADDFLPTLIYIVLKGNPPRLQSNIQYITRFCNPSRLMTGEDGYYFTNLCCAVAFIEKLDAQSLNLSQEDFDRYMSGQTSPRKQEAESWSPDACLGVKQMYKNLDLLSQLNERQERIMNEAKKLEKDLIDWTDGIAREVQDIVEKYPLEIKPPNQPLAAIDSENVENDKLPPPLQPQVYAG

Variants of: B1
Conditions: with eea1_human EEA1, Q15075
Chain of eea1_human EEA1, Q15075 (Q15075 whole entry): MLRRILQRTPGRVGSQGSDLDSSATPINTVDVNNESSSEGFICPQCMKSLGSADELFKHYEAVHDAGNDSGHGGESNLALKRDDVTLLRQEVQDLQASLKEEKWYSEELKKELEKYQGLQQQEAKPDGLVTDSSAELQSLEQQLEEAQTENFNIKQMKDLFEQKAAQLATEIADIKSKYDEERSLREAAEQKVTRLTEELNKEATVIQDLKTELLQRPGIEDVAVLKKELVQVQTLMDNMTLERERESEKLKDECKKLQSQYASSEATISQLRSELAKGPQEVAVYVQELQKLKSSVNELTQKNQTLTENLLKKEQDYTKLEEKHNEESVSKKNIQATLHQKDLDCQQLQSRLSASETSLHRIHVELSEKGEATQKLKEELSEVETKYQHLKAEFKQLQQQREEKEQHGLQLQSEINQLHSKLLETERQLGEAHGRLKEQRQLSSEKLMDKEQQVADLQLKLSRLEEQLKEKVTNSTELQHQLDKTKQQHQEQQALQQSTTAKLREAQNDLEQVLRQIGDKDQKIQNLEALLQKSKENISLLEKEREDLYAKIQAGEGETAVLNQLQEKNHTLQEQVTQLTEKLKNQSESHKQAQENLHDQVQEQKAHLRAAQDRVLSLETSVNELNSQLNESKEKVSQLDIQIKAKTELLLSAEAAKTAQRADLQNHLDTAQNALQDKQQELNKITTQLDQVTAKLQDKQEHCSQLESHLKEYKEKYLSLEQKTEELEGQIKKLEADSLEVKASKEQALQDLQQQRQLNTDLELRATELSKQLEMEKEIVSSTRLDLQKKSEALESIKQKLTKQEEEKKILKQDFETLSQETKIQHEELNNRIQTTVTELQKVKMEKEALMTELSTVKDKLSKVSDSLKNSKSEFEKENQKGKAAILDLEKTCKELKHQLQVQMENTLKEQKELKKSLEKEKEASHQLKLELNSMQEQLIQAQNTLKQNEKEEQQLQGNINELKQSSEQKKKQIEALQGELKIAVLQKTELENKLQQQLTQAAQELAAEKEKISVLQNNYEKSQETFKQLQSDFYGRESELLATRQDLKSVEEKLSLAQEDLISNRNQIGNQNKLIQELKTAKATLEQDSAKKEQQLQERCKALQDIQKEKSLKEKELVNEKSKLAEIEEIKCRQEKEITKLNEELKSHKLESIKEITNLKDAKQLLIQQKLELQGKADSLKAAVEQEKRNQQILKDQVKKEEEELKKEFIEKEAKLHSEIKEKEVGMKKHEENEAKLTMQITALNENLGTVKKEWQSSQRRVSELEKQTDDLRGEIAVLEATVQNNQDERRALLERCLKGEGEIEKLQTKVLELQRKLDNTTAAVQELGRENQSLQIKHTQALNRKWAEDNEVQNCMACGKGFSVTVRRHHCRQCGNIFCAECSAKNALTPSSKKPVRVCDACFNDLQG

effect of a mutation on the interaction | Variant
increasing interaction | Q79L
